Experimental data reported in article PMC6327041 (Nature Communications, 2019).
Where a chain is given by its changes, count along the chain named. Where two headings read alike, the source gives them in different places. Values belong to the molecule of their own block, whether it stands above or below them.

Columns and labels:
[1] = target: T1, S287-K347 PHD1 (KDM5A, GST-PHD1) (Homo sapiens, UniProt P29375); test: Fluorescence polarization binding to PHD1 S287-K347
T1 construct: Expression of GST-PHD1 (Ser287-Lys347); GST (N); made in house; host or cells: E. coli BL21(DE3)
T1 sequence (P29375 287-347): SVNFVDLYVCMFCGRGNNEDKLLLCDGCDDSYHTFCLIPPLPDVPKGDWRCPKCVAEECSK
Experimental: (§1) All PHD1 constructs used (Val291-[…], S287-K347, and S287-K347 D292A) (Supplementary Figure 1) were cloned into a pET41a vector and expressed in BL21(DE3) E. coli cells. Expression and purification of all mutants followed the same protocol. Specifically, cells were induced with 0.4 mM IPTG and grown at 18 °C overnight before the pellet was collected. The cells were resuspended in lysis buffer (140 mM NaCl, 2.7 mM KCl, 10 mM Na2HPO4, 1.8 mM KH2PO4, 0.5 mM TCEP, 50 µM ZnCl2, 1 mM phenylmethylsulfonyl fluoride (PMSF), pH 7.3), lysed by sonication and centrifuged. The supernatant was purified using Glutathione Sepharose 4B resin, washed with high salt buffer (50 mM HEPES, 700 mM KCl, 10% glycerol, 0.5 mM TCEP, […], 1 mM PMSF, pH 8) and low salt buffer (50 mM HEPES, 150 mM KCl, 10% glycerol, 0.5 mM TCEP, […], 1 mM PMSF, pH 8) and recovered by elution using low salt buffer with 30 mM glutathione. The sample was then concentrated and further purified by size-exclusion chromatography using a Hiload 26/60 Superdex 75 gel filtration column. Samples were eluted into 40 mM HEPES, 50 mM KCl, 0.5 mM TCEP, and […] and flash-frozen.
Data from direct FP measurements were fitted to equation 1: FPobs=FPmaxPHD1+FPminKd/Kd+[PHD1]
Data from competition-based FP assays were fitted to equation 2: FPobs=KiFPmaxPHD1+FPminKd+FPminKd[I]/KiKd+[PHD1]+Kd[I] where FPobs is the observed FP, FPmax is the maximum FP value, FPmin is the minimum FP value, [PHD1] is concentration of PHD1, Kd is the dissociation constant, Ki is the inhibition constant referring to the competing peptide and [I] is the competing peptide concentration.

KDM5A1-797 = target: T2, KDM5A1-797 (Homo sapiens, UniProt P29375); test: KDM5A demethylation, FDH-coupled formaldehyde release assay; format: biochemical; conditions: for kcat / Km: 1 μM KDM5A, pH 7.5, room temperature, n ≥ 3, s.e.m.; for Km: read-out: Km
T2 construct: KDM5A1-797 was cloned into a pFASTBAC HTA vector; His (N, cleaved yes); made in house; host or cells: Sf21 insect cells (baculovirus)
T2 sequence (P29375 1-797): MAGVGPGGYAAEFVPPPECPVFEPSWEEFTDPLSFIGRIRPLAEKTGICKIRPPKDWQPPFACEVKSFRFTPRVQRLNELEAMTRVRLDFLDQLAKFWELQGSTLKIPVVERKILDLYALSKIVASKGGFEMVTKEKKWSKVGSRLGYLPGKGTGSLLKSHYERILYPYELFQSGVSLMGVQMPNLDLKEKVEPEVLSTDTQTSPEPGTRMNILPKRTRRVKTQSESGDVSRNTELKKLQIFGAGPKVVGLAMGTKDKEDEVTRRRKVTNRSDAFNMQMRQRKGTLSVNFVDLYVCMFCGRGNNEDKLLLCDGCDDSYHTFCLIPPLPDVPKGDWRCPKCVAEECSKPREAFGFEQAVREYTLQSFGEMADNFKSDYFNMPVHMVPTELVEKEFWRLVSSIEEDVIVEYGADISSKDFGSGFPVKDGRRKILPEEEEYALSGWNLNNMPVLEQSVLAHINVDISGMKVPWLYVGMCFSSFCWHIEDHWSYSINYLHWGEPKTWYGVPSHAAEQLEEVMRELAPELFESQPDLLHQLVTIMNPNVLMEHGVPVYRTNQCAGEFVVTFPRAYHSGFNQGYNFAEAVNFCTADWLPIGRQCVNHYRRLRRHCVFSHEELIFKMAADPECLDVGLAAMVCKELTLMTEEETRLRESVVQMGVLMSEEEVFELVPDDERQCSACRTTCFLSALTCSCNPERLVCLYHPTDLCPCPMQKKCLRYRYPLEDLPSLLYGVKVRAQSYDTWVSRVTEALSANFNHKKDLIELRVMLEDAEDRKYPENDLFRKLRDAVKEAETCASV
Experimental: WT KDM5A1-797 was expressed in Sf21 cells following Invitrogen Bac-to-Bac baculovirus expression system protocol. KDM5A1-797 was cloned into a pFASTBAC HTA vector. Purified bacmid was transfected in Sf21 cells. Approximately […] cells per well of a six-well dish were allowed to attach in 2 ml of SF-900 II SFM media containing 50 U ml^−1 penicillin and 50 μg ml^−1 streptomycin. While cells attached, 8 μl of Cellfectin II reagent (Invitrogen) in 100 μl of unsupplemented Grace’s medium was mixed with ~2–5 μg of bacmid in 100 μl of unsupplemented Grace’s medium and incubated for 15–30 min at 25 °C. Once cells were attached, media was removed and cells were washed with 2 ml of Grace’s unsupplemented media. The bacmid DNA:Cellfectin mixture was then diluted to 1 ml with Grace’s unsupplemented media and added to the well. Cells with bacmid:Cellfectin II mixture were incubated for 5 h at 27 °C. After 5 h of incubation, bacmid:Cellfectin mixture was removed and replaced with 2 ml of SF-900 II SFM 50 U ml^−1 penicillin and 50 μg ml^−1 streptomycin. Transfected cells were incubated 3–5 days or until signs of viral infection were observed. After transfection, the supernatant was spun down to remove the dead cells. The supernatant was then sterile filtered to obtain the P1 viral stock. To make P2, 20 ml of […] at ~2 × 10^6 cells per ml of sf21 was infected with 2 ml of P1 virus and incubated for 48–60 h. After 56 h, the cells were spun down and the supernatant was collected and sterile filtered to obtain P2 viral stock. Similarly, P3 viral stock from P2 viral stock was obtained. Generally, 1 l of Sf21 at 2 × 10^6 cells per ml was infected with ~40 ml of P3 virus for ~48–56 h. Cells were then collected and resuspended in the lysis buffer (25 mM HEPES pH 7.9, 350 mM NaCl, 5 mM KCl, 1.5 mM MgCl2, 10 mM imidazole, aprotinin 2 μg ml^−1, leupeptin 3 μg ml^−1, pepstatin 3 μg ml^−1, and 1 mM PMSF). Cells were homogenized by emulsiflex. After lysis, the supernatant was recovered by centrifuging at 35k r.p.m. for 45 min, and incubated with cobalt resin equilibrated in lysis buffer for 1 h at 4 °C. After incubation the resin was washed with wash buffer (25 mM HEPES, pH 7.9, 350 mM NaCl, 0.5 mM MgCl2, 10% glycerol, 10 mM imidazole, aprotinin 2 μg ml^−1, leupeptin 3 μg ml^−1, pepstatin 3 μg ml^−1, and 1 mM PMSF). His-KDM5A was eluted with elution buffer (25 mM HEPES pH 7.9, 100 mM NaCl, 0.5 mM MgCl2, 10% glycerol, 100 mM imidazole, aprotinin 2 μg ml^−1, leupeptin 3 μg ml^−1, pepstatin 3 μg ml^−1, and 1 mM PMSF). The His-tag was removed by overnight incubation with TEV protease at 4 °C in the dialysis buffer (25 mM HEPES, pH 7.9, 100 mM NaCl, and 2 mM DTT). After cleavage, protein was further purified by size-exclusion chromatography using a S200 column. Purified KDM5A was eluted, aliquoted and stored at −80 °C in 40 mM HEPES, pH 7.9, 50 mM KCl.
Michaelis–Menten parameters were determined using Graphpad Prism.

[2] = target: T3, S287-K347 PHD1 D292A (KDM5A, GST-PHD1) (Homo sapiens, UniProt P29375, D292A); test: Fluorescence polarization binding to PHD1 S287-K347 D292A; conditions: compared to WT PHD1S287-K347
T3 construct: S287-K347, and S287-K347 D292A; GST (N); made in house; host or cells: E. coli BL21(DE3)
T3 sequence (P29375 287-347 D292A): T1 sequence (P29375 287-347) with D6A
Experimental: as §1
Data from direct FP measurements were fitted to equation 1: FPobs=FPmaxPHD1+FPminKd/Kd+[PHD1] […]

PHD1KDM5B = conditions: cited from earlier work
Text: This study presents a significant amount of biochemical and biophysical work to reveal the molecular basis underlying the allosteric enhancement in a quantitative manner. […] H ...

- Kd ([1]; modified H3 10mer N-terminal peptides, competition-based FP, NB = no binding, n ≥ 3, s.e.m., construct not stated in legend, read-out: PHD1 binding Kd (Fig. 4a)): 205 ± 73 µM
Molecule: C[C@H](N)C(=O)N[C@@H](C)C(=O)N[C@H](C(=O)N[C@@H](CCCCN)C(=O)N[C@@H](CCC(N)=O)C(=O)N[C@H](C(=O)N[C@@H](C)C(=O)N[C@@H](CCCNC(=N)N)C(=O)N[C@@H](CCCCN)C(=O)N[C@@H](CO)C(=O)O)[C@@H](C)O)[C@@H](C)O [H3R2A]

- reduction in Km on addition of effector peptide (KDM5A1-797; 38 µM H3 10mer effector peptide vs none): fivefold
- kcat/Km (KDM5A1-797; +H3 10mer peptide (38 µM)): 427 ± 95 M⁻¹ s⁻¹
- kcat (KDM5A1-797; +H3 10mer peptide (38 µM)): 0.0233 ± 0.001 s⁻¹
- Km (KDM5A1-797; +H3 10mer peptide (38 µM)): 54.7 ± 9.9 µM
- kcat/Km (KDM5A1-797; No effector peptide): 98 ± 34 M⁻¹ s⁻¹
- kcat (KDM5A1-797; No effector peptide): 0.0225 ± 0.00183 s⁻¹
- Km (KDM5A1-797; No effector peptide): 229 ± 60 µM
- binding to PHD1 domain ([1]; FP, at the concentrations used in our assays (Supplementary Figure 3a: Ac-H3K4me2-FAM, PHD1S287-K347)): does not bind to the PHD1 domain
Molecule: Ac-H3K4me2 21mer: N-terminally acetylated 21mer H3K4me2 peptide (Ala1-Ala21)

- preference for WT H3 peptide over H3K4A peptide ([1]; ratio of Kd): 2.3 fold
- decrease in affinity, D292A vs WT PHD1S287-K347 ([2]; listed as H3 peptide): 7.6 fold
- decrease in affinity, D292A vs WT PHD1S287-K347 ([2]; listed as unmodified H3 peptide): approximately eightfold
Molecule: H3K4me0: C-terminal fluorescently labeled unmodified H3 10mer peptide, affinity by direct FP
- decrease in affinity for H3 peptide on mutation of the analogous Asp in KDM5B PHD1 (PHD1KDM5B; PHD1KDM5B Asp mutant vs WT, ref Klein Cell Rep 2014 and Zhang Protein Cell 2014): approximately 6 fold
- discrimination of WT H3 over H3K4A peptide (PHD1KDM5B; PHD1KDM5B): 2.5 fold
